We go through 46 molecules from patent US20200361992A1 (PROTAGONIST THERAPEUTICS, published 2020).

To fix the notation:
T1: human ferroportin (SLC40A1) fused with GFP, stably expressed in HEK293 cells (human, UniProt Q9NP59 1-571)
T1 sequence (looked up): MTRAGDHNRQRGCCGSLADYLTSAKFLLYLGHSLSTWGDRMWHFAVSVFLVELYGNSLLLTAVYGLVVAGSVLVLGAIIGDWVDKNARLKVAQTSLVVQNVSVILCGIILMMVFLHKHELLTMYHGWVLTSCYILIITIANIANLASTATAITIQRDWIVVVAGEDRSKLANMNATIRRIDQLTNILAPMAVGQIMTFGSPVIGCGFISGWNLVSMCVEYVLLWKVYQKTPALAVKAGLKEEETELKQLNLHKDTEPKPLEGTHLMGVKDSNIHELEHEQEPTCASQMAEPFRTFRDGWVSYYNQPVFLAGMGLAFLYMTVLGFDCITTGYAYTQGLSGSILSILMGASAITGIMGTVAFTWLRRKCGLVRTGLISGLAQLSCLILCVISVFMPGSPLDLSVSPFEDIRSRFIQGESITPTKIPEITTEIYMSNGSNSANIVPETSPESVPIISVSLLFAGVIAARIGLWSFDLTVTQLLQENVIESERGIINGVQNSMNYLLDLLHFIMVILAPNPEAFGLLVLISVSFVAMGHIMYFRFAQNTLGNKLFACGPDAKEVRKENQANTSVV

B1: Compd ID 161 (peptide)
peptide: DTHXPCIKXKC
modifications: Isovaleric acid-DTH-[Dpa]-PCI-[(D)Lys]-[b-hPhe]-[Lys(dDap-Palm)]-C-NH2
B2: Compd ID 155 (peptide)
peptide: DTHXPCIKXKKC
modifications: Isovaleric acid-DTH-[Dpa]-PCI-[(D)Lys]-[b-hPhe]-[Lys(Peg11-Octane)]-[(D)Lys]-C-NH2
B3: Compd ID 12 (peptide)
peptide: Isovaleryl-DTHFPCI[hSer]FK([PEG12-Palmitoyl])C-NH2
modifications: disulfide 6-11 (inferred)
B4: Compd ID 29 (peptide)
peptide: Isovaleryl-DTHFPCI[dK]FK([PEG2′-Ahx-Palmitoyl])C-NH2
modifications: disulfide 6-11 (inferred)
B5: Compd ID 160 (peptide)
peptide: DTHXPCIKXKC
modifications: Isovaleric acid-DTH-[Dpa]-PCI-[(D)Lys]-[b-hPhe]-[Lys(Dap-Palm)]-C-NH2
B6: Compd ID 151 (peptide)
peptide: DTHXPCIKXKXX
modifications: Isovaleric acid-DTH-[Dpa]-PCI-[(D)Lys]-[b-hPhe]-[Lys(Ahx-Palm)]-[Dap]-[N-Me-Cys]-NH2
B7: Compd ID 11 (peptide)
peptide: DTHFPCIXFKC
modifications: Isovaleric acid-DTHFPCI-[Orn]-[Phe]-Lys[PEG11-Palm]-C-NH2
B8: Compd ID 168 (peptide)
peptide: DTHXPCIKFKKC
modifications: Isovaleric_Acid-D-T-H-bhPhe-(D)Pro-C-I-(D)Lys-F-[Lys_Peg11_Palm]-(D)Lys-C-NH2
B9: Compd ID 21 (peptide)
peptide: Isovaleryl-DTHFPCI[dK]FK([PEG8′-Palmitoyl])C-NH2
modifications: disulfide 6-11 (inferred)
B10: Compd ID 159 (peptide)
peptide: DTHXPCIKXKKC
modifications: Isovaleric acid-DTH-[Dpa]-PCI-[(D)Lys-Ac]-[b-hPhe]-[Lys(Peg11-Palm)]-[(D)Lys-Ac]-C-NH2
B11: Compd ID 167 (peptide)
peptide: DTHXPCIKFKKC
modifications: Isovaleric Acid-D-T-H-[Dpa]-(D)Pro-C-I-(D)Lys-F-[Lys_Peg11_Palm]-(D)Lys-C-NH2
B12: Compd ID 154 (peptide)
peptide: DTHXPCIKXKKC
modifications: Isovaleric acid-DTH-[Dpa]-PCI-[(D)Lys]-[b-hPhe]-[Lys-Peg11]-[(D)Lys]-C-NH2
B13: Compd ID 147 (peptide)
peptide: Isovaleryl-DTH[Dip]PCII[β3hF]K([PEG12-Palmitoyl])[dK]C-NH2
modifications: disulfide 6-12 (inferred)
B14: Compd ID 28 (peptide)
peptide: Isovaleryl-DTHFPCI[dK]FK([γGlu-PEG2′-Palmitoyl])C-NH2
modifications: disulfide 6-11 (inferred)
B15: Compd ID 25 (peptide)
peptide: Isovaleryl-DTHFPCI[dK]FK([Ahx-Palmitoyl])C-NH2
modifications: disulfide 6-11 (inferred)
B16: Compd ID 70 (peptide)
peptide: Isovaleryl-DTHFPCI[dK]FK([PEG12-Palmitoyl])PC-NH2
modifications: disulfide 6-12 (inferred)
B17: Compd ID 13 (peptide)
peptide: Isovaleryl-DTHFPCIQFK([PEG12-Palmitoyl])C-NH2
modifications: disulfide 6-11 (inferred)
B18: Compd ID 24 (peptide)
peptide: Isovaleryl-DTHFPCI[dK]FK([PEG1′-Palmitoyl])C-NH2
modifications: disulfide 6-11 (inferred)
B19: Compd ID 146 (peptide)
peptide: Isovaleryl-DTH[Dip]PCI[dA][β3hF]K([PEG12-Palmitoyl])[dK]C-NH2
modifications: disulfide 6-12 (inferred)
B20: Compd ID 153 (peptide)
peptide: DTHXPCIKXKKC
modifications: Isovaleric acid-DTH-[Dpa]-PCI-[(D)Lys-Peg11*]-[b-hPhe]-[Lys(Peg11-Palm)]-[(D)Lys-Peg11*]-C-NH2 (*PEG11-OMe)
B21: Compd ID 15 (peptide)
peptide: Isovaleryl-DTHFPCI[Nle]FK([PEG12-Palmitoyl])C-NH2
modifications: disulfide 6-11 (inferred)
B22: Compd ID 157 (peptide)
peptide: DTHXPCIKXKKC
modifications: Isovaleric acid-DTH-[Dpa]-PCI-[(D)Lys]-[b-hPhe]-[Lys-Peg11*]-[(D)Lys]-C-NH2 (*PEG11-OMe)
B23: Compd ID 166 (peptide)
peptide: DTHXPCIKXKKC
modifications: Isovaleric acid-DTH-[Dpa]-PCI-[(D)Lys-Peg11*]-[b-hPhe]-[Lys(Ahx-Palm)]-[(D)Lys-Peg11*]-C-NH2 (*PEG11-OMe)
B24: Compd ID 3 (peptide)
peptide: DTHFPCIKFKPRSKGC
modifications: Isovaleric acid-DTHFPCIKF-Lys[PEG11-Palm]-PRSKGC-NH2
B25: Compd ID 158 (peptide)
peptide: DTHXPCIKXKKC
modifications: Isovaleric acid-DTH-[Dpa]-PCI-[(D)Lys]-[b-hPhe]-[Lys(IsoGlu-Palm)]-[(D)Lys]-C-NH2
B26: Compd ID 162 (peptide)
peptide: Isovaleryl-DTH[Dip]PCI[dK][β3hF][Dap]([Dap-Palmitoyl])C-NH2
modifications: disulfide 6-11 (inferred)
B27: Compd ID 22 (peptide)
peptide: Isovaleryl-DTHFPCI[dK]FK([PEG4′-Palmitoyl])C-NH2
modifications: disulfide 6-11 (inferred)
B28: Compd ID 152 (peptide)
peptide: DTHXPCIKXKKC
modifications: Isovaleric acid-DTH-[Dpa]-PCI-[(D)Lys]-[b-hPhe]-[Lys(Ac)]-[(D)Lys]-C-NH2
B29: Compd ID 156 (peptide)
peptide: DTHXPCIKXKKC
modifications: Isovaleric acid-DTH-[Dpa]-PCI-[(D)Lys]-[b-hPhe]-[Lys(Peg11-Lauryl)]-[(D)Lys]-C-NH2
B30: Compd ID 14 (peptide)
peptide: Isovaleryl-DTHFPCIK(Ac)FK([PEG12-Palmitoyl])C-NH2
modifications: disulfide 6-11 (inferred)
B31: Compd ID 164 (peptide)
peptide: Isovaleryl-DTH[Dip]PCI[dK][β3hF][Dap]([dDap-Palmitoyl])C-NH2
modifications: disulfide 6-11 (inferred)
B32: Compd ID 26 (peptide)
peptide: Isovaleryl-DTHFPCI[dK]FK([PEG2′-γGlu-Palmitoyl])C-NH2
modifications: disulfide 6-11 (inferred)
B33: Compd ID 30 (peptide)
peptide: Isovaleryl-DTHFPCI[dK]FK(Palmitoyl)C-NH2
modifications: disulfide 6-11 (inferred)
B34: Compd ID 71 (peptide)
peptide: Isovaleryl-DTHFPCI[dK]FK([PEG12-Palmitoyl])PRC-NH2
modifications: disulfide 6-13 (inferred)
B35: Compd ID 20 (peptide)
peptide: Isovaleryl-DTHFPCIKWK([PEG12-Palmitoyl])C-NH2
modifications: disulfide 6-11 (inferred)
B36: Compd ID 68 (peptide)
peptide: Isovaleryl-DTHFPCI[dK]FK([PEG12-Palmitoyl])C-NH2
modifications: cysteine pairing not given here
B37: Compd ID 23 (peptide)
peptide: Isovaleryl-DTHFPCI[dK]FK([PEG2′-Palmitoyl])C-NH2
modifications: disulfide 6-11 (inferred)
B38: Compd ID 67 (peptide)
peptide: DTHFPCIKFKPC
modifications: Isovaleric acid-DTHFPC(SH)I-[Lys]-[Phe]-Lys[PEG11-Palm]-Pro-C(SH)-NH2
B39: Ref. Compd 1 (peptide)
peptide: DTHFPCIKFKPRSKGCK
modifications: Isovaleric acid-DTHFPCIKF-Lys[PEG11-Palm]-PRSKGCK-NH2
B40: Compd ID 165 (peptide)
peptide: DTHXPCIKXKKC
modifications: Isovaleric acid-DTH-[Dpa]-PCI-[(D)Lys]-[b-hPhe]-[Lys(Ahx-Palm)]-[(D)Lys]-C-NH2
B41: Compd ID 148 (peptide)
peptide: Isovaleryl-DTH[Dip]PCI[β3hF]K([PEG12-Palmitoyl])[dK]C-NH2
modifications: disulfide 6-11 (inferred)
B42: Compd ID 149 (peptide)
peptide: Isovaleryl-DTH[Dip][Npc]CI[dK][Phe(4-tBu)]K([PEG12-Palmitoyl])[dK]C-NH2
modifications: disulfide 6-12 (inferred)
B43: Compd ID 69 (peptide)
peptide: DTHFPCIKFKC
modifications: Isovaleric acid-DTHFPC(SH)I-[Lys]-[Phe]-Lys[PEG11-Palm]-C(SH)-NH2
B44: Compd ID 150 (peptide)
peptide: Isovaleryl-DTH[Dip][Npc]CI[dK][Phe(4-tBu)]K([PEG12-Palmitoyl])C[dK]-NH2
modifications: disulfide 6-11 (inferred)
B45: Compd ID 163 (peptide)
peptide: Isovaleryl-DTH[Dip]PCI[dK][β3hF][Dap]([dDap-Palmitoyl])C-NH2
modifications: disulfide 6-11 (inferred)
B46: Compd ID 27 (peptide)
peptide: Isovaleryl-DTHFPCI[dK]FK([γGlu-Palmitoyl])C-NH2
modifications: disulfide 6-11 (inferred)

Starred links: 1 amine or outer side, 2 acyl side, 3 side chain; linkers in the order of their positions; H or OH if unused. Positions of bridges follow the written chain, without caps; N, C: chain ends. Non-standard residues stand in square brackets, D forms with d. Groups on a side chain read outwards from the residue. Primed or numbered codes have the meaning given here. *: point of attachment. PEG4′ = bifunctional PEG linker with 4 polyethylene glycol units; PEG12 = NCCOCCOCCOCCOCCOCCOCCOCCOCCOCCOCCOCCOCCC(=O)O; Phe(4-tBu) = CC(C)(C)c1ccc(C[C@H](N)C(=O)O)cc1; Dip = N[C@H](C(=O)O)C(c1ccccc1)c1ccccc1; γGlu = O=C(O)[C@H](CCC(=O)[*:2])N[*:1]; Palmitoyl = CCCCCCCCCCCCCCCC(=O)*; β3hF = N[C@H](CC(=O)O)Cc1ccccc1; Isovaleryl = CC(C)CC(=O)*; hSer = N[C@@H](CCO)C(=O)O; Nle = CCCC[C@H](N)C(=O)O; PEG1′ = not defined here; PEG2′ = not defined here; PEG8′ = not defined here; dDap = NC[C@@H](N)C(=O)O; Dap = NC[C@H](N)C(=O)O; Npc = nipecotic acid; Ahx = NCCCCCC(=O)O

The experiment deals with T1, human ferroportin (SLC40A1) fused with …. Briefly: cell-based or functional assay.
On to B1, for which the “FPN IC50” value came out at 10 nM.

With B2, the “FPN IC50” value is 279 nM.

For B3, the “FPN IC50” value amounted to 2 nM.

As to B4, the “FPN IC50” value was 30 nM.

Turning to B5, the “FPN IC50” value turned out to be 4 nM.

For the molecule B6, the “FPN IC50” value turned out to be 28.5 nM.

For the molecule B7, the “FPN IC50” value came to 4 nM.

As to B8, the “FPN IC50” value stood at 54 nM.

Take B9: the “FPN IC50” value stood at 30 nM.

Take B10: the “FPN IC50” value came out at 4 nM.

On to B11, for which the “FPN IC50” value came to 81 nM.

With B12, the “FPN IC50” value was found to be 404 nM.

In the case of B13, the “FPN IC50” value was 24 nM.

For the molecule B14, the “FPN IC50” value amounted to 23 nM.

Take B15: the “FPN IC50” value amounted to 11 nM.

As for B16, the “FPN IC50” value was 5 nM.

Turning to B17, the “FPN IC50” value is 4 nM.

For B18, the “FPN IC50” value came out at 17 nM.

Turning to B19, the “FPN IC50” value amounted to 11 nM.

Turning to B20, the “FPN IC50” value is 19 nM.

In the case of B21, the “FPN IC50” value amounted to 2 nM.

Consider B22, for which the “FPN IC50” value came out at 347 nM.

As to B23, the “FPN IC50” value was 6 nM.

For the molecule B24, the “FPN IC50” value came to 16 nM.

Take B25: the “FPN IC50” value was 6 nM.

B26: the “FPN IC50” value came out at 8 nM.

For the molecule B27, the “FPN IC50” value was 17 nM.

For the molecule B28, the “FPN IC50” value is 146 nM.

For the molecule B29, the “FPN IC50” value is 125 nM.

For the molecule B30, the “FPN IC50” value was determined as 3 nM.

Consider B31, for which the “FPN IC50” value came to 6 nM.

Take B32: the “FPN IC50” value was found to be 13 nM.

For the molecule B33, the “FPN IC50” value came out at 31 nM.

For B34, the “FPN IC50” value worked out at 8 nM.

Consider B35, for which the “FPN IC50” value was determined as 4 nM.

Consider B36, for which the “FPN IC50” value was found to be 12 nM.

In the case of B37, the “FPN IC50” value is 40 nM.

With B38, the “FPN IC50” value amounted to 13 nM.

Take B39: the “FPN IC50” value amounted to 30 nM.

As to B40, the “FPN IC50” value is 6 nM.

Regarding B41, the “FPN IC50” value stood at 12 nM.

As to B42, the “FPN IC50” value worked out at 17 nM.

In the case of B43, the “FPN IC50” value was found to be 9 nM.

Turning to B44, the “FPN IC50” value amounted to 22 nM.

Turning to B45, the “FPN IC50” value worked out at 7 nM.

B46: the “FPN IC50” value came to 35 nM.
